Two molecules from paper PMC2781058 (Proceedings of the National Academy of Sciences of the …, 2009) can be followed below.

In this assay the target is T1, Med18 (S. cerevisiae, UniProt P32585 1-307).
T1 sequence (looked up): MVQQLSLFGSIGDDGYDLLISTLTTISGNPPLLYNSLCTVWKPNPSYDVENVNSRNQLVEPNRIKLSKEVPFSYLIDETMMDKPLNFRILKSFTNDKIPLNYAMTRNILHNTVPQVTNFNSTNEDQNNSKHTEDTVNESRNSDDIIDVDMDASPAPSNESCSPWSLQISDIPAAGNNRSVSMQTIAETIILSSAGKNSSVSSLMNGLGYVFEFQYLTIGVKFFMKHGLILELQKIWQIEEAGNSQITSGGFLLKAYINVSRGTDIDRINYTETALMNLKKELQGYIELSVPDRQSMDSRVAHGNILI
Briefly: co-IP.

B1: Med8 (natural protein, S. cerevisiae, UniProt P38304 1-223, looked up)
chain: MSQSTASLVPEGNQGSLQEDVSFDFNGVPGQALDAVRMRLAQLTHSLRRIRDEMSKAELPQWYTLQSQLNVTLSQLVSVTSTLQHFQETLDSTVVYPLPKFPTTSHESLVTTLLRKKNIPEVDEWMKYVRETSGVTTALLKDEEIEKLLQQDREITNWARTTFRNEYGKHDFKNEESLSEEHASLLVRDSKPSKPFNVDDVLKFTFTGEKPIITGSTSTSSSN
Consider B1, for which the binding result is recorded as “binds”.

B2: Med20 (natural protein, S. cerevisiae, UniProt P34162 1-210, looked up)
chain: MGKSAVIFVERATPATLTELKDALSNSILSVRDPWSIDFRTYRCSIKNLPADVSKLMYSITFHHHGRQTVLIKDNSAMVTTAAAADIPPALVFNGSSTGVPESIDTILSSKLSNIWMQRQLIKGDAGETLILDGLTVRLVNLFSSTGFKGLLIELQADEAGEFETKIAGIEGHLAEIRAKEYKTSSDSLGPDTSNEICDLAYQYVRALEL
Turning to B2, the binding result was “binds”.
